Drawing on PMC4476568, this text covers stoichiometry N for one substance.

Values joined by “and” are separate entries in the source; they are usually repeats but may differ in a detail not shown here. Equal entries are not always repeated.

The assay addresses EGFP-labeled nuclear transport factor 2 (NTF2) (human) (UniProt P61970). In words: fluorescence fluctuation spectroscopy brightness analysis (MSQ with z-scan FFS); living E. coli cells in agarose; two-photon excitation at 1000 nm, ~1 mW, focus at the geometric centre of the cell; MSQ-curve fit to Eqs 14 and 22; normalized brightness against EGFP in solution, corrected for cell geometry.

“EGFP-labeled nuclear transport factor 2 (NTF2) (from UniProt P61970 1-127) (natural protein; other documents disagree on this pair)”: the stoichiometry N – broadly, the number of molecules, sites or subunits per partner or assembly – was 2.1 and 1.94.
